This passage reports stoichiometry N results from paper PMC4164519.

The assay addresses Neu4 with a C-terminal TAP (SBP/CBP) tag expressed in COS 7 cells (human) (UniProt Q8WWR8). The assay can be described thus: SEC; FPLC size exclusion chromatography of the purified enzyme; apparent mass. (In general: Size exclusion chromatography separates by hydrodynamic size, large species first.)

Broadly, the stoichiometry N is a count of units in the complex or per binding partner. On to “Neu4 with a C-terminal TAP (SBP/CBP) tag expressed in COS 7 cells (from UniProt Q8WWR8 1-484) (enzyme)”, for which the stoichiometry N is 2.
